In patent US20180155451A1 (published 2018):

Columns and labels:
[1] = biological target: T1, FcγRIIb (human, UniProt P31994 43-217); test: SPR (Biacore), antibody captured on antigen peptide, FcγR as analyte; relative to GpH7-A5/GpH7-B3/GpL16-k0 = 100
T1 construct: extracellular domain; Soluble extracellular domain with C-terminal His tag, used as analyte in Biacore; also called FcgRIIb; 2b; not shown: His tag attached to the C terminus
T1 sequence (looked up): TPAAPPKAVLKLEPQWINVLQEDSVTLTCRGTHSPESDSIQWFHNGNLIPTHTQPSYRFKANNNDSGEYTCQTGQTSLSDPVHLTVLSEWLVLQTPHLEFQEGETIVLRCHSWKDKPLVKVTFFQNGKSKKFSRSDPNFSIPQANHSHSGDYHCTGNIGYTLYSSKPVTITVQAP

[2] = biological target: T2, FcγRIa (human, UniProt P12314 16-292); test: as above
T2 construct: extracellular domain; Soluble extracellular domain with C-terminal His tag, used as analyte in Biacore; also called FcgRI; 1a; not shown: His tag attached to the C terminus
T2 sequence (P12314 16-292): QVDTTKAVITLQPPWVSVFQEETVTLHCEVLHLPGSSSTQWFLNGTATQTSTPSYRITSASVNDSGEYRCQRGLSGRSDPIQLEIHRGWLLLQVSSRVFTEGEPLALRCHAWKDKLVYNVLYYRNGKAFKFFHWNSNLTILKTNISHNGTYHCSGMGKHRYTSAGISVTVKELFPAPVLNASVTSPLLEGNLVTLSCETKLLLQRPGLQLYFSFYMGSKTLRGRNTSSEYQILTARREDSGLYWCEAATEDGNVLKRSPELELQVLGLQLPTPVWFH

[3] = biological target: T3, FcγRIIIa extracellular domain with C-terminal His tag (human, UniProt P08637 17-208); test: SPR (Biacore); He/Con_3a divided by He/Con_2b (reference: binding to FcγRIIb)
T3 construct: extracellular domain; also called FcgRIIIa; 3a; not shown: His tag attached to the C terminus
Protocol: (§1) Analysis of interaction between objective antibody and the FcγR was carried out using Biacore T100 (GE Healthcare). HBS-EP+ (GE Healthcare) was used as the running buffer, and the measurement temperature was set to 25° C. Chips produced by immobilizing the antigen peptide by the amine coupling method to a Series S Sencor Chip CM5 (GE Healthcare), or alternatively, chips produced by allowing preliminarily biotinylated antigen peptides to interact with and immobilize onto a Series S Sensor Chip SA (certified) (GE Healthcare) were used. Antibodies of interest were captured onto an antigen peptide-immobilized chip, and allowed to interact to each FcγR diluted with running buffer. To regenerate and repeatedly use the chip, the antibodies captured on the chip were washed off by reacting 10 mM glycine-HCl, pH 1.5.
(§2) The FcγR-binding activity of each antibody was assessed primarily using as an indicator the FcγR-binding activity and dissociation constant for FcγR.

[4] = biological target: T3, FcγRIIIa extracellular domain with …; test: SPR (Biacore), relative binding
Protocol: as §1, §2

[5] = biological target: T4, FcγRIIb extracellular domain with C-terminal His tag (human, UniProt P31994 43-217); test: SPR (Biacore), relative binding
T4 construct: extracellular domain; also called FcgRIIb; 2b; not shown: His tag attached to the C terminus
T4 sequence (looked up): T1 sequence (looked up)
Protocol: as §1, §2

[6] = biological target: T5, FcγRIIb, extracellular domain with C-terminal His tag (human, UniProt P31994 43-217); test: Biacore SPR; binding relative to GpH7-A5/GpH7-B3/GpL16-k0 (=100)
T5 construct: extracellular domain; soluble receptor used as Biacore analyte; also called 2b; FcgRIIb
T5 sequence (looked up): T1 sequence (looked up)
Protocol: (§3) The heterodimerized antibodies He Abs in which one of the H chains was introduced with an alteration were assayed for their binding activities to each activating FcγR and inhibitory FcγR according to the method described in Example 4. […] The activating FcγRs in FIGS. 26, 27, 28, and 29 are FcγRIa, FcγRIIa (R), FcγRIIa (H), and FcγRIIIa, respectively.
as §1

[7] = biological target: T6, FcγRIIa R (FcγRIIa, allotype R, Arg at position 131), extracellular domain with C-terminal His tag (human, UniProt P12318 34-217); test: as above
T6 construct: extracellular domain; soluble receptor used as Biacore analyte; also called 2aR; FcgRIIa R
T6 sequence (looked up): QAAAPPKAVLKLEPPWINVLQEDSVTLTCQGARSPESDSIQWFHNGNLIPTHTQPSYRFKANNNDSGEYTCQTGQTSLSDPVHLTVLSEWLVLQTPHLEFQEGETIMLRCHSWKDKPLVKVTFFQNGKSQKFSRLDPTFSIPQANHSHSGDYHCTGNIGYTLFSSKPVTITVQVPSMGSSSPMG
Protocol: as §3, §1

[8] = biological target: T7, FcγRIIIa extracellular domain with C-terminal His tag (human, UniProt P08637 17-208); test: SPR (Biacore), antibody captured, FcγR as analyte; He Ab binding / GpH7-A5/GpH7-B3/GpL16-k0 binding x 100
T7 construct: extracellular domain; also called FcgRIIIa; 3a; not shown: His tag at the C terminus
Protocol: as §3, §1

[9] = biological target: T7, FcγRIIIa extracellular domain with …; test: SPR (Biacore); ratio of He/Con_3a (FcγRIIIa) to He/Con_2b (FcγRIIb)
Protocol: as §3, §1

B1: GpH7-A5/GpH7-B3 variant P238_20W/GpL16-k0 (antibody, human IgG1, kappa)
heavy 1: not shown
heavy 2: not shown
light: DIVMTQSPLSLPVTPGEPASISCQASESLVHSNRNTYLHWYLQKPGQSPQLLIYKVSNRFSGVPDRFSGSGSGTDFTLKISRVEAEDVGVYYCSQNTHVPPTFGQGTKVEIERTVAAPSVFIFPPSDEQLKSGTASVVCLLNNFYPREAKVQWKVDNALQSGNSQESVTEQDSKDSTYSLSSTLTLSKADYEKHKVYACEVTHQGLSSPVTKSFNRGEC
notes: Heterodimerized IgG1; mutation in the GpH7-B3 H chain only; also called He Ab
[1]
  He/Con_2b: 123 % of control
[2]
  He/Con_1a: 99.9 % of control

B2: GpH7-A5/GpH7-B3 variant A327_01G/GpL16-k0 (antibody, human IgG1, kappa)
heavy 1: not shown
heavy 2: not shown
light: B1 light
notes: Heterodimerized IgG1; alteration in one H chain only; also called He Ab
[3]
  He_3a/2b (IIIa/IIb): 0.63 ratio
[4]
  He/Con_3a (IIIa binding): 72.4 % of GpH7-A5/GpH7-B3/GpL16-k0 (=100)
[5]
  He/Con_2b (IIb binding): 116 % of GpH7-A5/GpH7-B3/GpL16-k0 (=100)

B3: heterodimerized antibody GpH7-A5/GpH7-B3 variant A327_01G/GpL16-k0 (antibody, human IgG1, kappa)
heavy 1: not shown
heavy 2: not shown
light: B1 light
notes: He Ab: anti-glypican-3 IgG1, alteration in one H chain only; also called He Ab
[6]
  He/Con_2b (IIb binding): 116 % of control
[7]
  He/Con_2aR (IIaR binding): 98.2 % of control

B4: heterodimerized antibody GpH7-A5/GpH7-B3 variant L328_19Q/GpL16-k0 (antibody, human IgG1, kappa)
heavy 1: not shown
heavy 2: not shown
light: B1 light
notes: as for B3
[6]
  He/Con_2b (IIb binding): 105 % of control
[7]
  He/Con_2aR (IIaR binding): 89.3 % of control

B5: GpH7-A5/GpH7-B3 variant Y300_05P/GpL16-k0 (antibody, human IgG1, kappa)
heavy 1: not shown
heavy 2: not shown
light: B1 light
notes: as for B2
[3]
  He_3a/2b (IIIa/IIb): 0.38 ratio
[4]
  He/Con_3a (IIIa binding): 2.8 % of GpH7-A5/GpH7-B3/GpL16-k0 (=100)

B6: GpH7-A5/GpH7-B3 variant N325_06M/GpL16-k0 (antibody, human IgG1, kappa)
heavy 1: not shown
heavy 2: not shown
light: B1 light
notes: as for B1
[1]
  He/Con_2b: 217 % of control
[2]
  He/Con_1a: 97.6 % of control

B7: heterodimerized antibody GpH7-A5/GpH7-B3 variant V266_05P/GpL16-k0 (antibody, human IgG1, kappa)
heavy 1: not shown
heavy 2: not shown
light: B1 light
notes: as for B3
[6]
  He/Con_2b (IIb binding): 0.4 % of control

B8: heterodimerized antibody GpH7-A5/GpH7-B3 variant V266_11K/GpL16-k0 (antibody, human IgG1, kappa)
heavy 1: not shown
heavy 2: not shown
light: B1 light
notes: as for B3
[6]
  He/Con_2b (IIb binding): 1 % of control

B9: GpH7-A5/GpH7-B3 variant L328_12R/GpL16-k0 (antibody, human IgG1, kappa)
heavy 1: not shown
heavy 2: not shown
light: B1 light
notes: position is EU numbering; also called He Ab
[8]
  He/Con_3a (IIIa binding): 32.7 relative, control = 100
[9]
  He_3a/2b (IIIa/IIb): 3.53 ratio

B10: GpH7-A5/GpH7-B3 variant A327_04F/GpL16-k0 (antibody, human IgG1, kappa)
heavy 1: not shown
heavy 2: not shown
light: B1 light
notes: as for B2
[3]
  He_3a/2b (IIIa/IIb): 0.72 ratio
[4]
  He/Con_3a (IIIa binding): 46.2 % of GpH7-A5/GpH7-B3/GpL16-k0 (=100)
[5]
  He/Con_2b (IIb binding): 63.7 % of GpH7-A5/GpH7-B3/GpL16-k0 (=100)

B11: GpH7-A5/GpH7-B3 variant S239_03V/GpL16-k0 (antibody, human IgG1, kappa)
heavy 1: not shown
heavy 2: not shown
light: B1 light
notes: as for B1
[1]
  He/Con_2b: 108 % of control
[2]
  He/Con_1a: 95.9 % of control

B12: GpH7-A5/GpH7-B3 variant N325_07I/GpL16-k0 (antibody, human IgG1, kappa)
heavy 1: not shown
heavy 2: not shown
light: B1 light
notes: as for B1
[1]
  He/Con_2b: 171 % of control
[2]
  He/Con_1a: 94.8 % of control

B13: GpH7-A5/GpH7-B3 variant A327_03V/GpL16-k0 (antibody, human IgG1, kappa)
heavy 1: not shown
heavy 2: not shown
light: B1 light
notes: as for B2
[3]
  He_3a/2b (IIIa/IIb): 0.48 ratio
[4]
  He/Con_3a (IIIa binding): 45.8 % of GpH7-A5/GpH7-B3/GpL16-k0 (=100)
[5]
  He/Con_2b (IIb binding): 94.7 % of GpH7-A5/GpH7-B3/GpL16-k0 (=100)

B14: GpH7-A5/GpH7-B3 variant A327_08L/GpL16-k0 (antibody, human IgG1, kappa)
heavy 1: not shown
heavy 2: not shown
light: B1 light
notes: as for B2
[3]
  He_3a/2b (IIIa/IIb): 0.67 ratio
[4]
  He/Con_3a (IIIa binding): 42 % of GpH7-A5/GpH7-B3/GpL16-k0 (=100)
[5]
  He/Con_2b (IIb binding): 63.1 % of GpH7-A5/GpH7-B3/GpL16-k0 (=100)

B15: heterodimerized antibody GpH7-A5/GpH7-B3 variant I332_02A/GpL16-k0 (antibody, human IgG1, kappa)
heavy 1: not shown
heavy 2: not shown
light: B1 light
notes: as for B3
[6]
  He/Con_2b (IIb binding): 103 % of control
[7]
  He/Con_2aR (IIaR binding): 97.6 % of control

B16: GpH7-A5/GpH7-B3 variant S239_05P/GpL16-k0 (antibody, human IgG1, kappa)
heavy 1: not shown
heavy 2: not shown
light: B1 light
notes: as for B1
[1]
  He/Con_2b: 102 % of control
[2]
  He/Con_1a: 85.3 % of control

B17: GpH7-A5/GpH7-B3 variant S239_07I/GpL16-k0 (antibody, human IgG1, kappa)
heavy 1: not shown
heavy 2: not shown
light: B1 light
notes: as for B1
[1]
  He/Con_2b: 107 % of control
[2]
  He/Con_1a: 97.8 % of control
